doi:10.1101/2021.03.05.434000 (bioRxiv, 2021)

Target: the molecule itself
Test: crystal structure

**Q.** Does AALALL [NCAP segment 217-AALALL-222] bind?
**A.** binds

**Q.** Does GSQASS [NCAP segment 179-GSQASS-184] bind?
**A.** binds

**Q.** Does GQTVTK [NCAP segment 243-GQTVTK-248] bind?
**A.** binds
